In patent US20260365731 (published 2026):
Several values for one entry are separate records, joined by “and”; a condition that tells them apart may be missing. Identical values can stand only once.

T1: human VEGFA (human, UniProt P15692)
T1 chain: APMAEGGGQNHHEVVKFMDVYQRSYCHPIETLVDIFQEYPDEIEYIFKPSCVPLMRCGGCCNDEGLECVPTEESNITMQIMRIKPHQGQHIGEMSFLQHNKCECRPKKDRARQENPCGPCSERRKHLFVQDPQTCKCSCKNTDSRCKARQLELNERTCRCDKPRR


Assays:
[1] = target: T2, human PD-1 (human, UniProt Q15116); experiment: BLI
[2] = target: T2, human PD-1; experiment: ELISA
[3] = target: T2, human PD-1; experiment: competition ELISA, PD-L1 blocking
[4] = target: T1, human VEGFA; experiment: SPR
[5] = target: T1, human VEGFA; experiment: BLI

| Binder | Kd [1] | EC50 [2] | IC50 [3] | binding result [4] | Kd [5] |
| --- | --- | --- | --- | --- | --- |
| Antibody 28 PD-1 arm (antibody, V domains shown) VH: QGQLVQSGAEVKKPGASVKVSCKASGYTFTDYEMHWVRQAPIHGLEWIGVIESETGGTAYNQKFKGRVTITADKSTSTAYMELSSLRSEDTAVYYCAREGITTVATTYYWYFDVWGQGTTVTVSS VL: DVVMTQSPLSLPVTLGQPASISCRSSQSIVHSNGNTYLEWYLQKPGQSPQLLIYKVSNRFSGVPDRFSGSGSGTDFTLKISRVEAEDVGVYYCFQGSHVPLTFGQGTKLEIK | 1.67 nM | 59.5 nM | 573 nM | – | – |
| Antibody 23 PD-1 arm (antibody, V domains shown) VH: QGQLVQSGAEVKKPGASVKVSCKASGYTFTDYEMHWVRQAPIHGLEWIGVIESETGGTAYNQKFKGRVTITADKSTSTAYMELSSLRSEDTAVYYCAREGITTVATTYYWYFDVWGQGTTVTVSS VL: DVVMTQSPLSLPVTLGQPASISCRSSQSIVHSNGNTYLEWYLQKPGQSPQLLIYKVSNRFSGVPDRFSGSGSGTDFTLKISRVEAEDVGVYYCFQGSHVPLTFGQGTKLEIK | 1.73 nM | 6.93 nM | 293 nM | – | – |
| Antibody 24 PD-1 arm (antibody, V domains shown) VH: QGQLVQSGAEVKKPGASVKVSCKASGYTFTDYEMHWVRQAPIHGLEWIGVIESETGGTAYNQKFKGRVTITADKSTSTAYMELSSLRSEDTAVYYCAREGITTVATTYYWYFDVWGQGTTVTVSS VL: DVVMTQSPLSLPVTLGQPASISCRSSQSIVHSNGNTYLEWYLQKPGQSPQLLIYKVSNRFSGVPDRFSGSGSGTDFTLKISRVEAEDVGVYYCFQGSHVPLTFGQGTKLEIK | 1.21 nM | 14.6 nM | 243 nM | – | – |
| Antibody 27 PD-1 arm (antibody, V domains shown) VH: QGQLVQSGAEVKKPGASVKVSCKASGYTFTDYEMHWVRQAPIHGLEWIGVIESETGGTAYNQKFKGRVTITADKSTSTAYMELSSLRSEDTAVYYCAREGITTVATTYYWYFDVWGQGTTVTVSS VL: DVVMTQSPLSLPVTLGQPASISCRSSQSIVHSNGNTYLEWYLQKPGQSPQLLIYKVSNRFSGVPDRFSGSGSGTDFTLKISRVEAEDVGVYYCFQGSHVPLTFGQGTKLEIK | 0.864 nM | 23.8 nM | 297 nM | – | – |

Other lines, results leading:

| Kd [1] | EC50 [2] | IC50 [3] | binding result [4] | Kd [5] | Binder |
| --- | --- | --- | --- | --- | --- |
| 0.584 nM | – | 255 nM and 135 nM | no binding | – | JS001 (TAB001, toripalimab) (antibody, V domains shown) VH: QGQLVQSGAEVKKPGASVKVSCKASGYTFTDYEMHWVRQAPIHGLEWIGVIESETGGTAYNQKFKGRVTITADKSTSTAYMELSSLRSEDTAVYYCAREGITTVATTYYWYFDVWGQGTTVTVSS VL: DVVMTQSPLSLPVTLGQPASISCRSSQSIVHSNGNTYLEWYLQKPGQSPQLLIYKVSNRFSGVPDRFSGSGSGTDFTLKISRVEAEDVGVYYCFQGSHVPLTFGQGTKLEIK |
| – | – | – | – | < 0.0266 nM | DotAb4 (designed binder) EVQLVESGGGLVQPGGSLRLSCAISGFSLAATDIDWVRQAPGKGLEWVARIFSPSDFTDYADSVKGRFTISADTSKNTVYLQMNSLRAEDTAVYYCGRPDTYAYNIFLDTPTYNALHYRGQGTLVTVSS |
